Measured values taken from PMC6182153 (Nucleic Acids Research, 2018).

B1: Streptococcus pyogenes type II-A Csn2 (natural protein, UniProt Q99ZV9 1-220, looked up)
chain: MNLNFSLLDEPIPLRGGTILVLEDVCVFSKIVQYCYQYEEDSELKFFDHKMKTIKESEIMLVTDILGFDVNSSTILKLIHADLESQFNEKPEVKSMIDKLVATITELIVFECLENELDLEYDEITILELIKSLGVKVETQSDTIFEKCLEILQIFKYLTKKKLLIFVNSGAFLTKDEVASLQEYISLTNLTVLFLEPRELYDFPQYILDEDYFLITKNMV
B3: Cas1-(His)6-MBP-Cas2 complex (complex, Streptococcus pyogenes)
chain 1: MAGWRTVVVNTHSKLSYKNNHLIFKDAYKTELIHLSEIDILLLETTDIVLSTMLVKRLVDENVLVIFCDDKRLPTAMLMPFYGRHDSSLQLGKQMSWSETVKSQVWTTIIAQKILNQSCYLGACSYFEKSQSIMDLYHGLENFDPSNREGHAARIYFNTLFGNDFSRDLEHPINAGLDYGYTLLLSMFAREVVVSGCMTQFGLKHANQFNQFNFASDIMEPFRPLVDKIVYENRNQPFPKIKRELFTLFSDTFSYNGKEMYLTNIISDYTKKVVKALNNEGKGVPEFRI
chain 2: MSYRYMRMILMFDMPTDTAEERKAYRKFRKFLLSEGFIMHQFSIYSKLLLNNTANNAMIGRLREHNPNKGNITLLTVTEKQFARMIYLHGERNNCIANSDERLVFLGEAFDES

Tests used:
[1] = molecular target: Streptococcus pyogenes type II-A Cas9 with a C-terminal (His)6 tag (Streptococcus pyogenes, UniProt Q99ZW2 1-1368); experiment: SPR
Sequence of Streptococcus pyogenes type II-A Cas9 with a C-terminal (His)6 tag (Q99ZW2 whole entry): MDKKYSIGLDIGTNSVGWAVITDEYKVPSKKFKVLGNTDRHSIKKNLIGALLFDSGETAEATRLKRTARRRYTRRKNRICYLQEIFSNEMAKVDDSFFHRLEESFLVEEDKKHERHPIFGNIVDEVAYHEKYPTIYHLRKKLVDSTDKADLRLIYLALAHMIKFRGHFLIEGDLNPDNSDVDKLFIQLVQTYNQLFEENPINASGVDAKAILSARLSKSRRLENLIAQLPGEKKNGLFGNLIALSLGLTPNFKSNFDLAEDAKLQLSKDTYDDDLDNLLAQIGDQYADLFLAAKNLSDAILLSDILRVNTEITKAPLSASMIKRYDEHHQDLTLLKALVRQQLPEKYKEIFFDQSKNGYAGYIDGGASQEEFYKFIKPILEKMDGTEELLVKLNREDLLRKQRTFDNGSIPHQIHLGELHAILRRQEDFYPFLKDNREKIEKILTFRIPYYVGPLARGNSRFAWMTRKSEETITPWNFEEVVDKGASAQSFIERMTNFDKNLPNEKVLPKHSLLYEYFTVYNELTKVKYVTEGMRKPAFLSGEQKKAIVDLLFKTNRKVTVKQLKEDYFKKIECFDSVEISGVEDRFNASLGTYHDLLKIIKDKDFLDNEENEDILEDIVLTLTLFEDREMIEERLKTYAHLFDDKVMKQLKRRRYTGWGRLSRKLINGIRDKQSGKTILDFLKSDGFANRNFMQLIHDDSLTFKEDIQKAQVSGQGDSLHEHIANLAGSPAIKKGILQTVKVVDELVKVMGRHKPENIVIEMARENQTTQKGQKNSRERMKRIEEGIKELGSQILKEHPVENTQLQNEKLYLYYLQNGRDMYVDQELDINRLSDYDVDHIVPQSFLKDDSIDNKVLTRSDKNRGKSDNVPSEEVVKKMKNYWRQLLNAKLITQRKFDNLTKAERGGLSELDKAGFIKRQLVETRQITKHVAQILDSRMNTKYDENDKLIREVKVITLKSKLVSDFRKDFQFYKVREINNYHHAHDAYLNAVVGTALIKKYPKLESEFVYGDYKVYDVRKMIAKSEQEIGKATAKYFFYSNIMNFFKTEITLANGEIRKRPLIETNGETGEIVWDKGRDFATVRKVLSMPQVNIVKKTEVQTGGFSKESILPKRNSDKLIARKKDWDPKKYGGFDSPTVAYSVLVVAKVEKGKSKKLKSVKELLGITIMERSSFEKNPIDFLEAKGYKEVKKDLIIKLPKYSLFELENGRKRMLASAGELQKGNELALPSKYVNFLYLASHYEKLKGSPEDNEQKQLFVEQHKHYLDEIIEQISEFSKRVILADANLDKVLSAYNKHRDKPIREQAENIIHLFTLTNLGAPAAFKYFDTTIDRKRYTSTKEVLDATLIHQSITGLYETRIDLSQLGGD

[2] = molecular target: B3; experiment: ITC
[3] = molecular target: T1, Streptococcus pyogenes type II-A Cas1 with a C-terminal (His)6 tag (Streptococcus pyogenes, UniProt Q99ZW1 1-289); experiment: ITC
T1 sequence (looked up): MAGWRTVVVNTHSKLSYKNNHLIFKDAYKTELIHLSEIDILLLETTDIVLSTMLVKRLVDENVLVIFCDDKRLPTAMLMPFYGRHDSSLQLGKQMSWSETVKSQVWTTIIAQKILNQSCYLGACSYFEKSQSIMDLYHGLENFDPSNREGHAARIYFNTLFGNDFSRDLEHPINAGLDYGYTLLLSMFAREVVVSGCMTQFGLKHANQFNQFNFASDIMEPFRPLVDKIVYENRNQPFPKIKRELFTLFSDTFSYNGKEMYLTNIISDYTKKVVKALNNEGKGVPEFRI

[4] = molecular target: B1; experiment: ITC

Work on B1 yielded a Kd [1] of 110 nM and a Kd [2] of 520 nM.

B2: N-terminal (His)6-MBP-tagged full-length Streptococcus pyogenes type II-A Cas2 (natural protein, UniProt Q99ZW0 1-113, looked up)
chain: MSYRYMRMILMFDMPTDTAEERKAYRKFRKFLLSEGFIMHQFSIYSKLLLNNTANNAMIGRLREHNPNKGNITLLTVTEKQFARMIYLHGERNNCIANSDERLVFLGEAFDES
In the case of B2, the Kd [3] is reported as 240 nM and the “stoichiometry N” value [3] is reported as 0.44 (His)6-MBP-Cas2 per Cas1.

With B3 the “stoichiometry N” value [4] was 2.1 Cas1–(His)6-MBP-Cas2 complex per Csn2 tetramer.
